Assay results from US11268120B2, “Identification of transglutaminase substrates and uses therefor” (Roche Sequencing Solutions, Inc., priority 2014, dated 2022).
No end group written: not given here. *: point of attachment. Cbz = O=C(OCc1ccccc1)*

Experiments:
MTG [1] = biological target: T1, MTG (Streptomyces mobaraensis, UniProt P81453); experiment: GLDH-coupled continuous assay for MTG activity in solution, Lys-containing substrate peptides; type: biochemical
T1 construct: purchased Zedira GmbH
T1 sequence (P81453 77-407): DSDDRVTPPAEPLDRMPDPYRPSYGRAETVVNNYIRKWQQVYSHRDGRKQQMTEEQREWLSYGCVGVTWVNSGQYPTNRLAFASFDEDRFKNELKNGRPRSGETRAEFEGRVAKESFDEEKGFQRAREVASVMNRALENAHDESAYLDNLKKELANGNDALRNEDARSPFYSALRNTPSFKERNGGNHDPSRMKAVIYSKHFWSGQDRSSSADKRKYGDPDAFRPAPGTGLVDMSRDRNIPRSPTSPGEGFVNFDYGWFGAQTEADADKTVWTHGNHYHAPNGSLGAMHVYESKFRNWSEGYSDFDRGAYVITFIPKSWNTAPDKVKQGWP
Procedure: (§1) FIG. 3 is a plot of MTG activity obtained by measuring rates of NADH oxidation at 340 nm and 37° C. using various concentrations of the di-peptide QG (1-20 mM) and the peptide […] (SEQ ID NO: 86) (0.2-5 mM) in the GLDH-coupled assay. The Michaelis-Menten equation was used to fit hyperbolic curves to the data points, giving Km and Vmax parameters and allowing calculation of turnover number (kcat) and catalytic efficiency (kcat/KM). Improved performance of array selected […] (SEQ ID NO: 86) (open squares) substrate was observed compared to standard QG-substrate (filled squares). ‘Z’ represents a carboxybenzyl protective group. […] The Michaelis-Menten equation was used to fit hyperbolic curves to the data points, giving Km and Vmax parameters as well as allowing calculation of turnover number (kcat) and catalytic efficiency (kcat/KM). Improved performance of array selected […] (SEQ ID NO: 80) (filled squares) substrate was observed as compared to a […] (SEQ ID NO: 81) substrate (filled circles). ‘Z-’ represents a carboxybenzyl protective group.
Lys-tag peptides were assayed in solution analog to the Gln-containing substrates: The assay was performed in a 96-well microtiter plate in the presence of 1.25 mM α-ketoglutarate, 100 μM Z-[…] (SEQ ID NO: 86) peptide as […], 0.2 U of glutamate dehydrogenase (GLDH), 500 μM NADH and Lys-containing substrate peptide concentrations ranging between 0 and 500 μM in 200 mM MOPS, 1 mM EDTA pH 7.2 (total volume per well 200 μl). The reaction was started by the addition of 0.1 U of MTG (Zedira GmbH) and the oxidation of NADH was continuously recorded against a blank at 340 nm for 20 min using a Biotek Synergy H4 microplate reader thermostated at 37° C. with short shaking intervals before each measurement. After a short lag phase, where the GLDH was saturated by MTG-mediated release of ammonia, linear rates of absorbance versus time, corresponding to MTG turnover, were observed, and subjected to Michaelis-Menten kinetic analysis.

MTG [2] = biological target: T1, MTG; experiment: GLDH-coupled continuous assay for MTG activity in solution, Gln-containing substrate peptides; type: biochemical; conditions: pH 7.2, 37° C.
Procedure: as §1
It was next determined whether peptides selected in the array assay were also preferred substrates in the solution reaction. The performance of the […] (SEQ ID NO: 26) peptide found in the array assay and the QG peptide substrate commonly used for testing MTG activity were compared. […]
The assay was performed in a 96-well microtiter plate in the presence of 10 mM α-ketoglutarate, 10 mM glycine methyl ester as acyl acceptor, 2 U of glutamate dehydrogenase (GLDH), 500 μM NADH (i.e., reduced nicotinamide adenine dinucleotide) and Gln-containing substrate peptide concentrations ranging between 0.2 and 20 mM in 200 mM MOPS (i.e., 3-(N-morpholino)propanesulfonic acid), 1 mM EDTA pH 7.2 (total volume per well 200 μl). The reaction was started by the addition of 0.1 U of MTG (Zedira GmbH) and the oxidation of NADH was continuously recorded against a blank at 340 nm for 20 min using a Biotek Synergy H4 microplate reader thermostated at 37° C. with short shaking intervals before each measurement. […]

[3] = BIACORE 3000 binding kinetics of VitDBP constructs to biotin labeled 25-OH-VitD2; conditions: 25° C.
Procedure: Experiments were carried out to determine whether the addition of an array-selected motif interferes with the ability of VitDBP to bind to its natural ligand, 25-hydroxylated vitamin D2 (25-OH-VitD2). The glutamine donor motif selected for use was […] (i.e., SEQ ID NO 86). A BIACORE SA sensor was mounted into a BIACORE 3000 instrument. The instrument was tempered at 25° C. The sensor was preconditioned as recommended by the manufacturer (GE Healthcare). The system buffer was PBS pH 8.2 with 5% DMSO and 0.05% TWEEN20. The sample buffer was the system buffer supplemented with 1 mg per ml CMD (Sigma). From a 300 nM biotin labeled 25-OH-VitD2 (25-OH-VitD2-bi) sample solution 860 RU were captured on the sensor flow cell 2 by a 2 min injection at 10 μl per minute. The sensor surface was finally saturated by 5 μM amino-PEO-biotin (Pierce). As a reference, 1 μM amino-PEO-biotin was injected into flow cell 1 for 1 min at a rate of 10 μl per minute.
The analytes wt-VitDBP-His8 and wt-VitDBP-His8-Q2 were compared for their binding behavior towards 25-OH-VitD2. The Gln-motif was later ruthenylated by an MTG catalyzed reaction as described (FIGS. 10A and 10B).
The analytes were injected in concentration series of 600 nM, 200 nM, 67 nM, 22 nM, 7.4 nM and 0 nM (buffer only). The analyte association was monitored for 3 min and the dissociation for 5 min both at 20 μl per minute (FIGS. 11 and 12).
After each injection the system was regenerated by a 100 mM HCl injection for 1 minute and 15 seconds at 20 μl per minute followed by a 2 min injection of 10 mM glycine buffer pH 1.5. The data was overlayed in a BIACORE sensorgram and kinetic data was calculated by fitting a Langmuir 1:1 binding model to the data obtained as recommended by the manufacturer using the Biaevaluation Software version 4.1.

Q: What does the source list for Z-GGGARSKLGGGG?
A: apparent difference in MTG catalytic efficiency compared to low-signal substrate GGGDEKPDGGGG (MTG [1]): at least 10 fold; Km (MTG [1]; Lys-peptide 0-500 μM, 100 μM Z-GGGDYALQGGGG, pH 7.2, 37° C.): 66.8 ± 20.2 µM; Vmax (MTG [1]; Lys-peptide, 0.1 U MTG, pH 7.2, 37° C.): 5.1 ± 0.5 pmol/s; kcat (MTG [1]; Lys-peptide, pH 7.2, 37° C.): 0.066 s⁻¹

Q: Which “MTG activity (in words)” value (MTG [1]; kinetic data could not be determined) does the source give for “Z-GGGDEKPDGGGG (Cbz-GGGDEKPDGGGG) [reference compound]” here?
A: extremely low activity

Q: Which Km (MTG [2]; Gln-peptide 0.2-20 mM, 10 mM glycine methyl ester as acyl acceptor) does the source give for Z-GGGDYALQGGGG (Cbz-GGGDYALQGGGG) here?
A: 970 ± 320 µM

Q: What about the Vmax (MTG [2]; Gln-peptide, 0.1 U MTG) of the same molecule?
A: 0.46 ± 0.06 nmol/s

Q: What about the kcat (MTG [2]; Gln-peptide) of the same molecule?
A: 6.0 s⁻¹

B1: wt-VDBP-His8: wild type vitamin D binding protein with C-terminally fused 8× Histidine tag, without Q2 tag (protein, UniProt P02774 17-474, looked up)
Vitamin D-binding protein: LERGRDYEKNKVCKEFSHLGKEDFTSLSLVLYSRKFPSGTFEQVSQLVKEVVSLTEACCAEGADPDCYDTRTSALSAKSCESNSPFPVHPGTAECCTKEGLERKLCMAALKHQPQEFPTYVEPTNDEICEAFRKDPKEYANQFMWEYSTNYGQAPLSLLVSYTKSYLSMVGSCCTSASPTVCFLKERLQLKHLSLLTTLSNRVCSQYAAYGEKKSRLSNLIKLAQKVPTADLEDVLPLAEDITNILSKCCESASEDCMAKELPEHTVKLCDNLSTKNSKFEDCCQEKTAMDVFVCTYFMPAAQLPELPDVELPTNKDVCDPGNTKVMDKYTFELSRRTHLPEVFLSKVLEPTLKSLGECCDVEDSTTCFNAKGPLLKKELSSFIDKGQELCADYSENTFTEYKKKLAERLKAKLPDATPTELAKLVNKHSDFASNCCSINSPPLYCDSEIDAELKNIL
modifications: His8 tag
Q: Which Kd ([3]; Langmuir 1:1 binding model) does the source give for B1 here?
A: 95 nM

Q: What about the ka ([3]; Langmuir 1:1 binding model) of the same molecule?
A: 13800 M⁻¹ s⁻¹

Q: And the kd ([3]; Langmuir 1:1 binding model)?
A: 0.00131 s⁻¹

Q: What about the Kd ([3]; Ligand VitD2-250H-biotin (300 nM)) of the same molecule?
A: 95 nM
